Experimental data reported in patent publication US20150322414A1 (UNITED KINGDOM RESEARCH AND INNOVATION, published 2015).

Assays:
[1] = biological target: Wild-type human Tie2 ectodomain (residues 1-442) surface expression construct on DT40 cells (human) (UniProt P09619); assay: flow cytometry, ligand titrated on DT40 cells displaying wild-type Tie2 ectodomain; apparent Kd
Angiopoietin-2 [2] = biological target: T1, Angiopoietin-2 (human, UniProt O15123 19-496, limits assumed); assay: SPR (ForteBio Octet), ectodomain-Fc immobilised; wild-type ectodomain
T1 construct: also called Ang2; biotinylated Ang2
T1 sequence (looked up): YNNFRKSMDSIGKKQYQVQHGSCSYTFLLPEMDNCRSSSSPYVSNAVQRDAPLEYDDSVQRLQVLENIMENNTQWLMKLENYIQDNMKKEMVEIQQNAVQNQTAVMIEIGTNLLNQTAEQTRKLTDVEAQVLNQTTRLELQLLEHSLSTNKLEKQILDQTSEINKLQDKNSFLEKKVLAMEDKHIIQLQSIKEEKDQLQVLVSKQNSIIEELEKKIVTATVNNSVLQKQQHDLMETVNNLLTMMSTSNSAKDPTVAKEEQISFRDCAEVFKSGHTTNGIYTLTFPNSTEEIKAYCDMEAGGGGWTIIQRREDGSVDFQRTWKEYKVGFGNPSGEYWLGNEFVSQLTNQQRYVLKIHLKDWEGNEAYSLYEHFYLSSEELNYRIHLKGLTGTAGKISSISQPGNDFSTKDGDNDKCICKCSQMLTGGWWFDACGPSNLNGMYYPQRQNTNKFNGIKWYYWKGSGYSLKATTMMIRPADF
Method: (§1) Surface plasmon resonance was performed using a ForteBio Octet instrument (Pall Life Sciences). Fusion proteins were immobilised at 5 μg/ml on sensors and kinetic binding assays perfoinied as detailed by the manufacturer.

Angiopoietin-2 [3] = biological target: T1, Angiopoietin-2; assay: SPR as named in the filing, panel headed 'Binding of R3 and R3 I161G binding to Ang2', concentrations not given
Method: as §1

Angiopoietin-1 [4] = biological target: T2, Angiopoietin-1 (human, UniProt Q15389 20-498, limits assumed); assay: SPR as named in the filing, panel headed 'Binding of Wt and R3 I161G mutant to Ang1', concentrations not given
T2 construct: also called Ang1; His6-tagged Ang1
T2 sequence (looked up): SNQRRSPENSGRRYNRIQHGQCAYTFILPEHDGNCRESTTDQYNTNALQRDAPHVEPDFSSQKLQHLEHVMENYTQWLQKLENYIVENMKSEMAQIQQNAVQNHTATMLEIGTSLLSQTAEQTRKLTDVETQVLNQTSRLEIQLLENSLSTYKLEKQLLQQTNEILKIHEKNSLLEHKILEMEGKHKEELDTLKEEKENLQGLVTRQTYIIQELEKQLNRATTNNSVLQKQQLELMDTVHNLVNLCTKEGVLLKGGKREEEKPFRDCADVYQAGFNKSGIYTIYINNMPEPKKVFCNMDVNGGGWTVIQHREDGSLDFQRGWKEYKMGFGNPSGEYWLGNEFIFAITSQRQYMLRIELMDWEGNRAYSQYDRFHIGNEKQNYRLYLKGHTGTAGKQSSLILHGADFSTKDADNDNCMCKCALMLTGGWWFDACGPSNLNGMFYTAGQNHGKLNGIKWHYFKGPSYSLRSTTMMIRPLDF
Method: as §1

Angiopoietin-2 [5] = biological target: T1, Angiopoietin-2; assay: SPR (ForteBio Octet), ectodomain-Fc immobilised; evolved (R3) ectodomain
Method: as §1

Angiopoietin-1 [6] = biological target: T2, Angiopoietin-1; assay: SPR as named in the filing (ForteBio Octet), ectodomain-Fc immobilised on the sensor, Ang1 in solution, concentrations not given
Method: as §1

Sequence of Wild-type human Tie2 ectodomain (residues 1-442) surface expression construct on DT40 cells (human) (P09619 514-562 limits assumed, form in doubt): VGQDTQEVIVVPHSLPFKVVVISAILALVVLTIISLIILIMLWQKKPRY

## Angiopoietin-1 (from UniProt Q15389 20-498) (ligand)
[1]
  Kd: 0.7 nM

B1: Wild-type Tie2 ectodomain (1-442)-Fc fusion protein (Fc fusion)
chain (part 1 of 2): AMDLILINSLPLVSDAETSLTCIASGWRPHEPITIGRDFEALMNQHQDPLEVTQDVTREWAKKVVWKREKASKINGAYFCEGRVRGEAIRIRTMKMRQQASFLPATLTMTVDKGDNVNISFKKVLIKEEDAVIYKNGSFIHSVPRHEVPDILEVHLPHAQPQDAGVYSARYIGGNLFTSAFTRLIVRRCEAQKWGPECNHLCTACMNNGVCHEDTGECICPPGFMGRTCEKACELHTFGRTCKERCSGQEGCKSYVFCLPDPYGCSCATGWKGLQCNEACHPGFYGPDCKLRCSCNNGEMCDRFQGCLCSPGWQGLQCEREGIQRMTPKIVDLPDHIEVNSGKFNPICKASGWPLPTNEEMTLVKPDGTVLHPKDFNHTDHFSVAIFTIHRILPPDSGVWVCSVNTVAGMVEKPFNISVK
chain (part 2 of 2): HHHHHH
notes: Secreted from HEK293 cells, about 80 kDa, purified on Ni-NTA; also called wild-type ectodomain; Wt; not shown: human Fc tag
Angiopoietin-2 [2]
  Kd: 4.1 nM

B2: R3 I161G mutant Tie2 ectodomain (Glycine at 161, deleted at R167 and H168) (Fc fusion)
chain: AMDLILINSLPLVSDAETSLTCIASGWRPHEPITIGRDFEALMNQHQDPLEVTQDVTREWAKKVVWKREKASKINGAYFCEGRVRGEAIRIRTMKMRQQASFLPATLTMTVDKGDNVNISFKKVLIKEEDAVIYKNGSGIHSVPEVPDILEVHLPHAQPQDAGVYSARYIGGNLFTSAFTRLIVRRCEAQKWGPECNHLCTACMNNGVCHEDTGECICPPGFMGRTCEKACELHTFGRTCKERCSGQEGCKSYVFCLPDPYGCSCATGWKGLQCNEACHPGFYGPDCKLRCSCNNGEMCDRFQGCLCSPGWQGLQCEREGIQRMTPKIVDLPDHIEVNSGKFNPICKASGWPLPTNEEMTLVKPDGTVLHPKDFNHTDHFSVAIFTIHRILPPDSGVWVCSVNTVAGMVEKPFNISVK
notes: also called new mutant; improved Ang2 ligand-trap; not shown: the other soluble ectodomains carried a human Fc tag and His6
Angiopoietin-2 [3]
  binding result: binds
Angiopoietin-1 [4]
  binding result: no binding

B3: Evolved (R3) Tie2 ectodomain-Fc fusion protein (F161I, ΔR167, ΔH168) (Fc fusion)
chain (part 1 of 2): AMDLILINSLPLVSDAETSLTCIASGWRPHEPITIGRDFEALMNQHQDPLEVTQDVTREWAKKVVWKREKASKINGAYFCEGRVRGEAIRIRTMKMRQQASFLPATLTMTVDKGDNVNISFKKVLIKEEDAVIYKNGSIIHSVPEVPDILEVHLPHAQPQDAGVYSARYIGGNLFTSAFTRLIVRRCEAQKWGPECNHLCTACMNNGVCHEDTGECICPPGFMGRTCEKACELHTFGRTCKERCSGQEGCKSYVFCLPDPYGCSCATGWKGLQCNEACHPGFYGPDCKLRCSCNNGEMCDRFQGCLCSPGWQGLQCEREGIQRMTPKIVDLPDHIEVNSGKFNPICKASGWPLPTNEEMTLVKPDGTVLHPKDFNHTDHFSVAIFTIHRILPPDSGVWVCSVNTVAGMVEKPFNISVK
chain (part 2 of 2): HHHHHH
notes: also called R3 ectodomain; evolved ectodomain; not shown: human Fc tag
Angiopoietin-2 [5]
  Kd: 2.4 nM
Angiopoietin-1 [6]
  binding result: no binding
